For 64 molecules, peptide exchange yield results are on record in patent US20170165339A1.

To fix the notation:
B1: … (SEQ ID NO: 164) (peptide)
peptide: KFSSFSLFF
B2: … (SEQ ID NO: 227) (peptide)
peptide: IFLDYEAGTLSF
B3: … (SEQ ID NO: 269) (peptide)
peptide: YFIDSTNLKTHF
B4: … (SEQ ID NO: 225) (peptide)
peptide: YYVYIMNHL
B5: … (SEQ ID NO: 161) (peptide)
peptide: IYLVSIPEL
B6: … (SEQ ID NO: 275) (peptide)
peptide: EYINQGDLHEF
B7: YFDKVVTL (SEQ ID NO: 215) (peptide)
peptide: YFDKVVTL
B8: … (SEQ ID NO: 168) (peptide)
peptide: KYQDILETI
B9: … (SEQ ID NO: 217) (peptide)
peptide: FFPPTRQMGLLF
B10: … (SEQ ID NO: 276) (peptide)
peptide: VYGFQWRHF
B11: … (SEQ ID NO: 284) (peptide)
peptide: RYLNKAFHI
B12: … (SEQ ID NO: 271) (peptide)
peptide: LYHDIFSRL
B13: … (SEQ ID NO: 207) (peptide)
peptide: AYVVFVSTL
B14: … (SEQ ID NO: 278) (peptide)
peptide: RYISDQLFTNF
B15: … (SEQ ID NO: 288) (peptide)
peptide: VYVSDIQEL
B16: … (SEQ ID NO: 176) (peptide)
peptide: EYNQWFTKL
B17: … (SEQ ID NO: 166) (peptide)
peptide: YYVESGKLF
B18: … (SEQ ID NO: 200) (peptide)
peptide: YYGPSLFLL
B19: … (SEQ ID NO: 174) (peptide)
peptide: VYVGGGQIIHL
B20: … (SEQ ID NO: 209) (peptide)
peptide: TYKDEGNDYF
B21: … (SEQ ID NO: 201) (peptide)
peptide: IYATEAHVF
B22: … (SEQ ID NO: 163) (peptide)
peptide: DYLKGLASF
B23: … (SEQ ID NO: 167) (peptide)
peptide: NYINRILKL
B24: … (SEQ ID NO: 162) (peptide)
peptide: VFTRVSSFL
B25: … (SEQ ID NO: 273) (peptide)
peptide: TYIKPISKL
B26: … (SEQ ID NO: 202) (peptide)
peptide: VYWDSAGAAHF
B27: … (SEQ ID NO: 171) (peptide)
peptide: LFIPSSKLLFL
B28: … (SEQ ID NO: 281) (peptide)
peptide: PYRLIFEKF
B29: … (SEQ ID NO: 223) (peptide)
peptide: KYIPYKYVI
B30: … (SEQ ID NO: 267) (peptide)
peptide: KYMVYPQTF
B31: … (SEQ ID NO: 277) (peptide)
peptide: VYQGHTALL
B32: … (SEQ ID NO: 160) (peptide)
peptide: VYTLDIPVL
B33: … (SEQ ID NO: 286) (peptide)
peptide: RYPDNLKHL
B34: … (SEQ ID NO: 274) (peptide)
peptide: AYLHSHALI
B35: … (SEQ ID NO: 216) (peptide)
peptide: QYSSVFKSL
B36: … (SEQ ID NO: 175) (peptide)
peptide: YYEVHKELF
B37: … (SEQ ID NO: 159) (peptide)
peptide: LYNKGFIYL
B38: … (SEQ ID NO: 282) (peptide)
peptide: KFVDSTFYL
B39: … (SEQ ID NO: 221) (peptide)
peptide: RYSTGLAGNLL
B40: … (SEQ ID NO: 218) (peptide)
peptide: YYKSTSSAF
B41: … (SEQ ID NO: 280) (peptide)
peptide: RYPDNLKHLYL
B42: … (SEQ ID NO: 196) (peptide)
peptide: LYIDRPLPYL
B43: … (SEQ ID NO: 270) (peptide)
peptide: NYYEVHKELF
B44: … (SEQ ID NO: 226) (peptide)
peptide: VYRDETGELF
B45: … (SEQ ID NO: 224) (peptide)
peptide: QYLENLEKL
B46: … (SEQ ID NO: 283) (peptide)
peptide: TYGDAGLTYTF
B47: … (SEQ ID NO: 268) (peptide)
peptide: QYLGQIQHI
B48: … (SEQ ID NO: 287) (peptide)
peptide: LYITEPKTI
B49: … (SEQ ID NO: 279) (peptide)
peptide: TYIESASEL
B50: … (SEQ ID NO: 199) (peptide)
peptide: RYAEEVGIF
B51: … (SEQ ID NO: 285) (peptide)
peptide: HYPPVQVLF
B52: … (SEQ ID NO: 197) (peptide)
peptide: EYSLFPGQVVI
B53: … (SEQ ID NO: 158) (peptide)
peptide: HYSQELSLLYL
B54: … (SEQ ID NO: 169) (peptide)
peptide: AYTLIAPNI
B55: … (SEQ ID NO: 222) (peptide)
peptide: TFSVSSHLF
B56: … (SEQ ID NO: 165) (peptide)
peptide: DYTTWTALL
B57: … (SEQ ID NO: 173) (peptide)
peptide: IYSWILDHF
B58: … (SEQ ID NO: 204) (peptide)
peptide: TYELRYFQI
B59: … (SEQ ID NO: 195) (peptide)
peptide: TYSVSFPMF
B60: … (SEQ ID NO: 170) (peptide)
peptide: VYEDQVGKF
B61: … (SEQ ID NO: 228) (peptide)
peptide: KYTSWYVAL
B62: … (SEQ ID NO: 219) (peptide)
peptide: EYPLVINTL
B63: … (SEQ ID NO: 272) (peptide)
peptide: QYLQDAYSF
B64: … (SEQ ID NO: 289) (peptide)
peptide: KYPVEWAKF

Bounds are passed on as bounds.

This assay addresses HLA-A*24 (human). Put plainly: UV peptide-exchange ELISA, yield grade.
B1 displayed a peptide exchange yield of 50 to 75%. Consider B2, for which the peptide exchange yield is above 75%.

Consider B3, for which the peptide exchange yield fell in the range of 50 to 75%. In turn, B4 registered a peptide exchange yield of 50 to 75%.

On to B5, for which the peptide exchange yield was above 75%. B6 came in with a peptide exchange yield of 50 to 75%.

B7 registered a peptide exchange yield of 20 to 49%. The molecule B8 displayed a peptide exchange yield above 75%. Regarding B9, the peptide exchange yield was above 75%.

The molecule B10 showed a peptide exchange yield above 75%. The result for B11 reads 50 to 75%.

The molecule B12 came in with a peptide exchange yield above 75%. B13: the peptide exchange yield was 20 to 49%. The molecule B14 had a peptide exchange yield above 75%. In turn, B15 yielded a peptide exchange yield of 50 to 75%. B16 showed a peptide exchange yield of 50 to 75%.

Consider B17, for which the peptide exchange yield was above 75%.

With B18, the peptide exchange yield lay within 50 to 75%.

B19 displayed a peptide exchange yield of 50 to 75%. For B20, the peptide exchange yield was 50 to 75%. On to B21, for which the peptide exchange yield was in the range of 50 to 75%. B22 gave a peptide exchange yield above 75%. The result for B23 reads above 75%; that for B24, 50 to 75%. As to B25, the peptide exchange yield is 50 to 75%.

For the molecule B26, the peptide exchange yield is above 75%. The result for B27 reads 50 to 75%; that for B28, 20 to 49%; that for B29, 50 to 75%.

For the molecule B30, the peptide exchange yield was above 75%. B31 yielded a peptide exchange yield above 75%.

Turning to B32, the peptide exchange yield is above 75%. The result for B33 reads 20 to 49%. Regarding B34, the peptide exchange yield was above 75%. As for B35, the peptide exchange yield was above 75%. Molecule B36 gave a peptide exchange yield above 75%. B37 returned a peptide exchange yield above 75%. For the molecule B38, the peptide exchange yield was above 75%. B39 came in with a peptide exchange yield of 50 to 75%. For B40, the peptide exchange yield is 50 to 75%.

In the case of B41, the peptide exchange yield is above 75%. As for B42, the peptide exchange yield is 50 to 75%.

Turning to B43, the peptide exchange yield was in the range of 50 to 75%.

Regarding B44, the peptide exchange yield is 50 to 75%. Consider B45, for which the peptide exchange yield is 50 to 75%. The result for B46 reads 50 to 75%.

In the case of B47, the peptide exchange yield was in the range of 50 to 75%. B48 yielded a peptide exchange yield of 50 to 75%. B49 showed a peptide exchange yield of 50 to 75%. The molecule B50 registered a peptide exchange yield of 50 to 75%.

For B51, the peptide exchange yield is 50 to 75%. Take B52: the peptide exchange yield lay in the range of 50 to 75%.

As for B53, the peptide exchange yield was above 75%. In turn, B54 showed a peptide exchange yield of 50 to 75%. Take B55: the peptide exchange yield was 50 to 75%. For B56, the peptide exchange yield was above 75%. Regarding B57, the peptide exchange yield is above 75%.

Molecule B58 yielded a peptide exchange yield above 75%. Molecule B59 gave a peptide exchange yield above 75%. With B60, the peptide exchange yield was in the range of 20 to 49%. Molecule B61 gave a peptide exchange yield above 75%.

On to B62, for which the peptide exchange yield lay within 50 to 75%. The molecule B63 showed a peptide exchange yield above 75%. Regarding B64, the peptide exchange yield was above 75%.
